Legend:
Assay in all cases: REVEAL MHC-peptide binding
[1] = molecular target: HLA-A1
[2] = molecular target: HLA-B15
[3] = molecular target: HLA-A11
[4] = molecular target: HLA-B27
[5] = molecular target: HLA-B14
[6] = molecular target: HLA-A2
[7] = molecular target: HLA-A29
[8] = molecular target: HLA-B7
[9] = molecular target: HLA-B8
[10] = molecular target: HLA-A24
[11] = molecular target: HLA-A3
[12] = molecular target: HLA-B35

Substance	% of positive control [1] [%]	% of positive control [2] [%]	% of positive control [3] [%]	% of positive control [4] [%]	% of positive control [5] [%]	% of positive control [6] [%]	% of positive control [7] [%]	% of positive control [8] [%]	% of positive control [9] [%]	% of positive control [10] [%]	% of positive control [11] [%]	% of positive control [12] [%]
EL[Nle]GYIPLI (peptide)	18.3	8.91	3.21	0.67	0.14	97.9	20.9	0.68	17.1	0.92	4.54	2.55
L[Nle]GYIPLIG (peptide)	14.3	14.6	2.48	0.73	0.15	49.5	25.9	0.89	17.3	0.71	3.98	2.85
GP[Cit]IGVRAT (peptide)	18.6	7.29	2.72	0.59	0.13	9.16	11.9	5.38	9.99	0.16	3.48	2.25
P[Cit]IGVRAT[Cit] (peptide)	18.8	12.6	1.72	0.94	0.19	7.36	14.1	1.91	9.47	0.21	2.52	2.45
[Cit]IGVRAT[Cit]R (peptide)	19.7	14.4	8.27	0.86	0.17	8.17	16.7	14.6	12.1	0.5	25.2	8.51
AEL[Nle]GYIPL (peptide)	16.6	10.2	3.61	0.77	0.12	7.49	20.8	1.11	14.7	0.37	3.05	1.91
[Nle]GYIPLIGA (peptide)	17.9	11.1	7.27	1.42	0.29	10.4	27.9	1.78	21.4	1.33	3.13	5.89
